Biological target: SIRPγ on Jurkat cells (human) (UniProt Q9P1W8)
Assay: flow cytometry on Jurkat cells (endogenous SIRPγ), PE-conjugated antibody, fold over isotype (MFI)

Chain of SIRPγ on Jurkat cells (human) (Q9P1W8 29-387): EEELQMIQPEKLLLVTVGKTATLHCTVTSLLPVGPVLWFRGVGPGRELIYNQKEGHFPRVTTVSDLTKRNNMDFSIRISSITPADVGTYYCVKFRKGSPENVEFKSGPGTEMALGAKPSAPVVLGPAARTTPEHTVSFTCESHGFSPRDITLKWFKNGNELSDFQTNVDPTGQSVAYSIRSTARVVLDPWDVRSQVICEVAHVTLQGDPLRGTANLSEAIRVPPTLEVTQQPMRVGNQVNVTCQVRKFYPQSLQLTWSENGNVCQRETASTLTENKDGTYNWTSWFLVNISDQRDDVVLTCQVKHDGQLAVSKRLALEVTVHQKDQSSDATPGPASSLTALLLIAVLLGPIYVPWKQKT

## PE SIRPy LSB2.20 (antibody)
  EC50 (read off the curve): 20 nM
